{
  "source": "paper PMC11591356",
  "about": "“Immunomodulatory Effects of the Tobacco Defensin NaD1” (Antibiotics, 2024)",
  "key": {"[1]": {"tested_on": "Caco-2 cells not in a monolayer", "conditions": "24 h, resazurin", "method": "The cytotoxic effects of the tobacco defensin NaD1 towards PBMCs or Caco-2 cells were investigated in 96-well plates using the resazurin method as previously described. In brief, 4 × 10^5 per well Caco-2 cells not in a monolayer as well as Caco-2 cells in a monolayer in DMEM/F12 (1:1) medium with 10% FBS or 2 × 10^6 PBMCs per well in RPMI-1640 also with 10% FBS were incubated with serial dilutions of NaD1 at final concentrations from 0.39 to 50 μM or from 2.1 to 180 μM for 24 h. After that, resazurin (Sigma, St. Louis, MO, USA) was added at a final concentration of 70 µM and the plates were incubated overnight (16–18 h). Untreated cells and cells treated by non-ionogenic detergent Triton X-100 were used as negative and positive controls, respectively. […] The cell viability was estimated by resorufin fluorescence registered at […] via the following equation: cell viability (%) = (Fsample/Fcontrol) × 100%. Experiment was carried out twice in duplicate."}, "[2]": {"tested_on": "human smooth muscles (CASMC)", "set-up": "method as in PMID 28179997", "conditions": "read-out: IC50, MTT cell viability assay; cited from earlier work"}},
  "note": "Read-outs that look alike come from different tables or passages of the source. Ends that are not written are not given here.",
  "data": [
    {"substance": "NaD1: Recombinant tobacco floral defensin NaD1 (UNIPROT Q8GTM0), obtained by heterologous expression in E. coli; FITC-labeled in the permeability assay (RECKTESNTFPGICITKPPCRKACISEKFTDGHCSKILRRCLCTKPC; cysteine pairing not given here; also: FITC label; UniProt Q8GTM0 26-72, looked up)", "values": [
      {"measurement": "CC50", "setting": "[1]; calculated", "result": 61.8, "unit": "µM"},
      {"measurement": "Cell viability", "setting": "[1]; peptide 53.3 µM", "result": "approximately 62%"},
      {"measurement": "Cell viability", "setting": "[1]; peptide 180 μM", "result": 8, "unit": "%"},
      {"measurement": "IC50", "setting": "[2]", "result": "~10", "unit": "µM"}
    ]}
  ]
}
